{"source": "patent US8865222B2", "about": "“Beta-casein assemblies for enrichment of food and beverages and methods of preparation thereof” (Technion Research and Development Foundation Ltd., priority 2008, dated 2014)", "key": {"[1]": {"experiment": "Turbidity (solution absorbance at 600 nm)", "format": "physicochemical", "conditions": "pH 2.6, empty assemblies, up to at least 2 wt %"}, "[2]": {"conditions": "depending on temperature, pH, solvent composition and ionic strength (Portnaya 2006); cited from earlier work"}, "[3]": {"experiment": "Isothermal titration calorimetry (ITC) demicellization of beta-casein micellar solution", "format": "physicochemical", "description": "• Cryo-TEM: Specimens were prepared in the controlled environment vitrification system (CEVS) (Bellare et al. Electron Microsc. Technique, 1988, 10; 87-111) at 24° C. and 100% relative humidity to avoid loss of volatiles. First, the solutions were incubated in the CEVS at the desired temperature for 1 h. Then, a 7 μL drop of each solution was placed on a TEM copper grid covered with a perforated carbon film (Pelco International) and blotted with filter paper to form a thin liquid film of the sample (100-200 nm thick). The thinned sample was plunged into liquid ethane at its freezing temperature (−183° C.) to form a vitrified specimen and then transferred to liquid nitrogen ([…]) for storage. The vitrified specimens were examined in a Philips CM120 transmission electron microscope operating at an accelerating voltage of 120 kV. We used an Oxford CT3500 (Oxford Instruments) cryoholder that maintained the specimens below −175° C. during sample transfer and observation. Images were recorded digitally on a cooled Gatan MultiScan 791 CCD camera using DigitalMicrograph 3.1 software (Gatan) in the low-dose imaging mode to minimize beam exposure and electron-beam radiation damage. • ITC: ITC measurements were performed with a VP-ITC calorimeter (MicroCal) at a temperature of 24° C. The reaction cell (V=1.43 mL) was filled with degassed solvent (lactic acid at pH 2.6, or phosphate buffer at pH 7.0). The injector-stirrer syringe (289 μL) was loaded with a beta-casein micellar solution (20 mg/mL). The micellar solution was injected into the reaction cell in 28 steps of 10 μL aliquots each, and the heat flow was measured. During the titration, the stirring speed was 310 rpm. The duration of each injection was 20 s, and the equilibration time between consecutive injections was 3 min. Such an interval was sufficient to equilibrate the reaction cell after every injection. Each experiment was performed at least three times. Calorimetric data analysis was carried out using Origin 5.0 software (MicroCal). • Analytical Ultracentrifugation: Sedimentation equilibrium experiments were performed at 24° C. using a Beckman Optima XL-A (Palo Alto, Calif.) analytical centrifuge at 6000, 10000, and 12000 rpm for the low-pH solutions and at 4000, 6000, and 8000 rpm for the pH 7.0 solutions. Data were collected at 280 nm. The beta-casein solutions were studied at concentrations ranging from 0.2 to 10.0 mg/mL at pH 2.6 and from 0.2 to 2 mg/mL at pH 7.0 and an ionic strength of 0.1. […] The average apparent molecular weight of the micelles at the various protein concentrations was calculated following methods well known in the art (The partial specific volume vj of the solute was taken to be 0.742 cm3/g3, and a solution density F of 1.0044 g/cm3 was measured). At beta-casein concentrations of 2 mg/mL and above under low pH conditions, the plot of the natural logarithm of the measured absorbance versus the square of the radius from the axis of rotation was not linear. To estimate Nagg, the limiting slope toward the outer edge of the sample cell was used to provide dln(c)/dr^2. The molecular weight calculated using this slope was divided by the monomer molecular weight calculated from the beta-casein amino acid sequence (24000).\n• Characterization of the beta-casein micelles by ITC: beta-casein micellar solution was titrated into lactic acid buffer (pH 2.6) placed in the ITC cell, and the heat flow was measured as a function of time (FIG. 6A). Three factors contribute to the exothermic enthalpy changes observed at the initial injections: micelle dilution, demicellization, and dilution of individual beta-casein molecules. The enthalpy changes decrease in magnitude as more protein is added and the concentration in the ITC cell increases. Eventually, the concentration in the cell exceeds the CMC and only micelle dilution contributes to the heat flow. […]"}}, "note": "Marks after values point to notes of the source that are not given here.", "data": [{"molecule": "beta-casein: lyophilized bovine beta-casein (~24 kDa milk protein) self-assembled into nano-sized micelles at low or neutral pH (protein, UniProt P02666 16-224, looked up) Beta-casein: RELEELNVPGEIVESLSSSEESITRINKKIEKFQSEEQQQTEDELQDKIHPFAQTQSLVYPFPGPIPNSLPQNIPPLTQTPVVVPPFLQPEVMGVSKVKEAMAPKHKEMPFPKYPVEPFTESQSLTLTDVENLHLPLPLLQSWMHQPHQPLPPTVMFPPQSVLSLSQSKVLPVPQKAVPYPQRDMPIQAFLLYQEPVLGPVRGPFPIIV", "values": [{"measurement": "turbidity", "setting": "[1]", "result": "does not vary significantly"}, {"measurement": "critical micelle concentration (CMC)", "setting": "[2]", "result": "0.05-0.2%"}, {"measurement": "heat of demicellization, ΔHdemic", "setting": "[3]; pH 2.6, 24 °C", "result": "~-17.9", "unit": "kJ/mol"}, {"measurement": "CMC", "setting": "[3]; pH 2.6, 24 °C, ITC", "result": 1.89, "unit": "mg/mL"}, {"measurement": "CMC", "setting": "[3]; pH 2.6, 25 °C row of table, found by ITC (footnote *)", "result": "0.19* wt %"}, {"measurement": "relative micellization cooperativity (MR)", "setting": "[3]; pH 2.6, IS 0.002, 24 °C", "result": 0.14, "unit": "mM"}, {"measurement": "CMC", "setting": "[3]; pH 2.6, ITC", "result": 0.079, "unit": "mM"}, {"measurement": "heat of demicellization, ΔHdemic", "setting": "[3]; pH 7.0 and IS of 0.1", "result": -40.53, "unit": "kJ/mol"}]}]}
